According to patent publication US12534531 (MacroGenics, dated 2026):

Legend:
[1] = target: T1, human LAG-3 expressed on NSO cells (human, UniProt P18627 29-525); test: FACS saturation binding to NSO cells expressing LAG-3; SM; SD 0.1376
T1 sequence: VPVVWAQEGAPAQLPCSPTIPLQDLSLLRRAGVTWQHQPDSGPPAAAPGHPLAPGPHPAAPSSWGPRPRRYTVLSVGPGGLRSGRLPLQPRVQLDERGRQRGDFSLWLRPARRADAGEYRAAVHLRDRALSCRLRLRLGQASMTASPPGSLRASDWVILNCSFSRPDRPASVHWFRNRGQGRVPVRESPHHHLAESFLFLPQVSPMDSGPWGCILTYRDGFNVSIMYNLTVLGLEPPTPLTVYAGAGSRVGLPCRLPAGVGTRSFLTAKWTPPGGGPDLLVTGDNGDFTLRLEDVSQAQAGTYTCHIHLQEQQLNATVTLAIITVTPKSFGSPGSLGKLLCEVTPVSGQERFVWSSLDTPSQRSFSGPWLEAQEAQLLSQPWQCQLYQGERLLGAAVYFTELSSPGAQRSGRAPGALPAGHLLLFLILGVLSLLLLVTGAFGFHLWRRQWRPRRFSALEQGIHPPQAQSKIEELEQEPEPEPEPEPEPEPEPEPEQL

[2] = target: T2, biotinylated-soluble human LAG-3-Fc fusion protein (human, UniProt P18627 23-450, biotinylated (site not stated)); test: FACS: inhibition of shLAG-3-Fc binding to MHC II on Daudi cells (column head prints EC50); SM; SD 0.1900
T2 construct: whole entry named; also called shLAG-3; shLAG-3-Fc; not shown: Fc
T2 sequence: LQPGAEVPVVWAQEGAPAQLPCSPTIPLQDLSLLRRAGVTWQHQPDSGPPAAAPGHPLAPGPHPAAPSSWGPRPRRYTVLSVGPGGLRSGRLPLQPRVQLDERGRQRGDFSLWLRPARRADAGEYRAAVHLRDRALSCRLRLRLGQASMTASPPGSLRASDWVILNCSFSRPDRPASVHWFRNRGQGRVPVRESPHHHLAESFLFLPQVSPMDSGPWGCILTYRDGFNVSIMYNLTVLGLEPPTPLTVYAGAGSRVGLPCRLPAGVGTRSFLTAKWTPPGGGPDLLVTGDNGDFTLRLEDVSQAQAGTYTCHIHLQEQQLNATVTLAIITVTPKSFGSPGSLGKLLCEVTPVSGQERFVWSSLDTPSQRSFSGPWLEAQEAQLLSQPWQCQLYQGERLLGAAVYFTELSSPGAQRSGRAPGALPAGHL

[3] = target: T2, biotinylated-soluble human LAG-3-Fc …; test: FACS: inhibition of shLAG-3-Fc binding to MHC II on Daudi cells (column head prints EC50); SM; SD 0.1409
[4] = target: T1, human LAG-3 expressed on NSO cells; test: FACS saturation binding to NSO cells expressing LAG-3; SM; SD 0.3430
[5] = target: T1, human LAG-3 expressed on NSO cells; test: FACS saturation binding to NSO cells expressing LAG-3; SM; SD 0.1660
[6] = target: T2, biotinylated-soluble human LAG-3-Fc …; test: FACS: inhibition of shLAG-3-Fc binding to MHC II on Daudi cells (column head prints EC50); SM; SD 0.3407

B1: LAG-3 mAb A IgG4 (P) (antibody, V domains shown)
VH: QVQLQQWGAGLLKPSETLSLTCAVYGGSFSDYYWNWIRQPPGKGLEWIGEINHNGNTNSNPSLKSRVTLSLDTSKNQFSLKLRSVTAADTAVYYCAFGYSDYEYNWFDPWGQGTLVTVSS
VL: EIVLTQSPATLSLSPGERATLSCRASQSISSYLAWYQQKPGQAPRLLIYDASNRATGIPARFSGSGSGTDFTLTISSLEPEDFAVYYCQQRSNWPLTFGQGTNLEIK
notes: IgG4 (P); also called 25F7
- EC50 [1]: 0.597 µM
- IC50 [2]: 0.701 µM

B2: hLAG-3 mAb 1 (1.4) IgG1 (AA) (antibody, V domains shown)
VH: QVQLVQSGAEVKKPGASVKVSCKASGYTFTNYGMNWVRQAPGQGLEWMGWINTYTGESTYADDFEGRFVFSMDTSASTAYLQISSLKAEDTAVYYCARESLYDYYSMDYWGQGTTVTVSS
VL: DIVMTQTPLSLSVTPGQPASISCKSSQSLLHSDAKTYLNWLLQKPGQPPERLIYLVSELDSGVPDRFSGSGSGTDFTLKISRVEAEDVGVYYCWQGTHFPYTFGGGTKVEIK
- IC50 [3]: 0.364 µM
- EC50 [4]: 0.607 µM

B3: LAG-3 mAb A IgG1 (AA) (antibody, V domains shown)
VH: QVQLQQWGAGLLKPSETLSLTCAVYGGSFSDYYWNWIRQPPGKGLEWIGEINHNGNTNSNPSLKSRVTLSLDTSKNQFSLKLRSVTAADTAVYYCAFGYSDYEYNWFDPWGQGTLVTVSS
VL: EIVLTQSPATLSLSPGERATLSCRASQSISSYLAWYQQKPGQAPRLLIYDASNRATGIPARFSGSGSGTDFTLTISSLEPEDFAVYYCQQRSNWPLTFGQGTNLEIK
notes: IgG1 (AA)
- EC50 [5]: 0.452 µM
- IC50 [6]: 0.592 µM
